Data on one molecule can be found in article PMC4175184, “Structure and function of cohesin’s Scc3/SA regulatory subunit” (Febs Letters, 2014).

The target in this assay is T1, S. cerevisiae Scc3, full-length protein (S. cerevisiae, UniProt P40541 1-1150).
T1 construct: Scc3, S. cerevisiae (UniProt SCC3_YEAST, P40541), full-length / intact protein; also called Sc Scc3; intact Scc3 protein; source: E. coli BL21(DE3) RIPL, purified (Talon beads, Superdex 200)
T1 sequence (looked up): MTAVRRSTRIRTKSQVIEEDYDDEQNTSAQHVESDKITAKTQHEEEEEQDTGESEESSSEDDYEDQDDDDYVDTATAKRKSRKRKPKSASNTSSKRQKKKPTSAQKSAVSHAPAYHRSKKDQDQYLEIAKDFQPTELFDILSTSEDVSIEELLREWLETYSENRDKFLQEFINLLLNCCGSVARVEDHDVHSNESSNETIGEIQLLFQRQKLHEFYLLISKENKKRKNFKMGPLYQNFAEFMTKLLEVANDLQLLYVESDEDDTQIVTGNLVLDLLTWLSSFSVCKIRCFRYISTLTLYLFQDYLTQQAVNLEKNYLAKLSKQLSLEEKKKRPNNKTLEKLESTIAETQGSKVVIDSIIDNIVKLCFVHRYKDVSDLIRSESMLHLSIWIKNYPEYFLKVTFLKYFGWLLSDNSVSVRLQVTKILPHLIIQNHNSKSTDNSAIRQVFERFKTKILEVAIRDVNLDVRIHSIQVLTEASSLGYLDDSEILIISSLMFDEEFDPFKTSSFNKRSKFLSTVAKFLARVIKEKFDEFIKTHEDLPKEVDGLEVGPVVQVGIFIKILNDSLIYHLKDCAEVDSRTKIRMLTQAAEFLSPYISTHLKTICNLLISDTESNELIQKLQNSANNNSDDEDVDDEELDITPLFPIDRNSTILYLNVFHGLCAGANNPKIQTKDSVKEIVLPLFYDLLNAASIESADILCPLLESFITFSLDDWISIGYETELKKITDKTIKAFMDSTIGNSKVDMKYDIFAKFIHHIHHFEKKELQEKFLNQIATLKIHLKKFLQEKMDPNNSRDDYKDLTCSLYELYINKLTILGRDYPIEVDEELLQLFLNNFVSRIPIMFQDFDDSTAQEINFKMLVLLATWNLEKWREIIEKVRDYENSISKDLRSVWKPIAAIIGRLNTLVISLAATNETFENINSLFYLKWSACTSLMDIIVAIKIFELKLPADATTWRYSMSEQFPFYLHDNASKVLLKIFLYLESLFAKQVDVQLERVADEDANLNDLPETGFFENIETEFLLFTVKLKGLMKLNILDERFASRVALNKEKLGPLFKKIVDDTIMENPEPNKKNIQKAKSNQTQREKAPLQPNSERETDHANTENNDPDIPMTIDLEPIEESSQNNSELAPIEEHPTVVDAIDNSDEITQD
As to the kind of experiment: pull-down; two differently tagged versions of Scc1 (259–451) in the presence of intact Scc3 protein; 5 μM of each in TAP buffer, resin 2 h at 4 °C (Fig. 2-fig^1C). To be noted: both partners purified.

B1: S. cerevisiae Scc1 (259–451), two differently tagged versions (domain or fragment, UniProt Q12158 259-451, looked up)
chain: DDDNSVEQGRRLGESIMSEEPTDFGFDLDIEKEAPAGNIDTITDAMTESQPKQTGTRRNSKLLNTKSIQIDEETENSESIASSNTYKEERSNNLLTPQPTNFTTKRLWSEITESMSYLPDPILKNFLSYESLKKRKIHNGREGSIEEPELNVSLNLTDDVISNAGTNDNSFNELTDNMSDFVPIDAGLNEAPF
notes: source: E. coli BL21(DE3) RIPL, purified (Talon beads, Superdex 200)
As for B1, the binding result was “binds”.
